# Reference: patent US20210038737A1
# Columns and labels:
# [1] = biological target: CAL PDZ domain (CALP5-His) (UniProt Q9HD26); assay: FP competition, condition B: probe FAM-…-OH (100 nM) with 500 nM CALP5-His; competitor titrated
# [2] = biological target: CAL PDZ domain (CALP5-His) (UniProt Q9HD26); assay: FP competition, condition A: probe peptide 26 (50 nM) with 100 nM CALP5-His; competitor titrated
# [3] = biological target: CAL PDZ domain (CALP5-His) (UniProt Q9HD26); assay: direct FP, condition C: 50 nM labeled peptide, CALP5-His titrated
# [4] = biological target: CAL PDZ domain (CALP5-His) (UniProt Q9HD26); assay: FP competition
# [5] = biological target: CAL PDZ domain (CALP5-His) (UniProt Q9HD26); assay: direct FP: 50 nM FITC-labeled peptide, PDZ domain titrated
# [6] = biological target: CAL PDZ domain (CALP5-His) (UniProt Q9HD26); assay: direct FP of FITC-labeled peptides
# NHERF1-PDZ1 domain = NHERF1-PDZ1 domain (UniProt O14745); assay: direct FP: 50 nM FITC-labeled peptide, PDZ domain titrated
# NHERF2-PDZ2 domain = NHERF2-PDZ2 domain (UniProt Q15599); assay: as above
# NHERF2-PDZ1 domain = NHERF2-PDZ1 domain (UniProt Q15599); assay: as above
# [7] = biological target: CAL PDZ domain (CALP5-His) (UniProt Q9HD26); assay: direct FP, ratio of KD values
# NHERF1-PDZ1 domain, sequence (O14745 14-94 limits assumed): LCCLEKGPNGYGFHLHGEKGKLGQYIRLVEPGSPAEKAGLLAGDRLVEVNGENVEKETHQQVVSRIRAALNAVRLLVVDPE
# NHERF2-PDZ1 domain, sequence (Q15599 11-90 limits assumed): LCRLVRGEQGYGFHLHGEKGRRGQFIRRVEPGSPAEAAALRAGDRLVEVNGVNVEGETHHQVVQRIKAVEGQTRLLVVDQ
# NHERF2-PDZ2 domain, sequence (Q15599 150-230 limits assumed): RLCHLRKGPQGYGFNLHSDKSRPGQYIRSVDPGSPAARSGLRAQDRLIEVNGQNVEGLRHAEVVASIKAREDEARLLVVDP
substance,measurement,setting,value
peptide 20: Ac-Cys-(D-Arg)-Arg-Arg-(2-Nal)-Trp-Gln-Pen-Thr-Arg-Tle-OH,IC50,[1],165 nM
peptide 21: Ac-Cys-(D-Arg)-(D-Arg)-Arg-(2-Nal)-Trp-Gln-Pen-Thr-Arg-Tle-OH,IC50,[1],270 nM
peptide 22: Ac-Cys-Arg-(D-Arg)-Arg-(2-Nal)-Trp-Gln-Pen-Thr-Arg-Tle-OH,IC50,[2],401 nM
peptide 23: FAM-miniPEG-Cys-(D-Arg)-Arg-Arg-(2-Nal)-Trp-Pro-Pen-Thr-Arg-Tle-OH,Kd,[3],168 nM
peptide 24: Ac-Cys-(D-Arg)-Arg-Arg-(2-Nal)-Trp-Pen-Tle-Thr-Arg-Tle-OH,"fold decrease in CAL binding (vs parent, printed as peptide 22)",[4],2 fold
same,IC50,[1],380 nM
peptide 25: Ac-Cys-(D-Arg)-Arg-Arg-(2-Nal)-(Bta)-Pen-Tle-Thr-Arg-Tle-OH,fold more potent than peptide 24 in CAL binding,[4],1.5 fold
same,IC50,[1],235 nM
peptide 26: FAM-miniPEG-Cys-(D-Arg)-Arg-Arg-(2-Nal)-(Bta)-Pen-Tle-Thr-Arg-Tle-OH,Kd,[3],49 nM
peptide 27-FITC: FITC-miniPEG-Cys-(D-Arg)-Arg-Arg-Nal-Trp-Pro-Pen-Thr-Arg-Tle-OH,Kd,[5],179 nM
peptide 28-FITC: FITC-miniPEG-Cys-(D-Arg)-Arg-Arg-Nal-Bta-Pro-Pen-Thr-Arg-Tle-OH,Kd,[5],87 nM
peptide 29-FITC: FITC-miniPEG-Cys-(D-Arg)-Arg-Arg-Nal-Bta-Pip-Pen-Thr-Arg-Tle-OH,"fold improvement of CAL PDZ-binding affinity (Pip for Pro, vs peptide 28)",[6],15 fold
same,Kd,NHERF1-PDZ1 domain,780 nM
same,Kd,[5],6 nM
same,Kd,NHERF2-PDZ2 domain,7480 nM
same,Kd,NHERF2-PDZ1 domain,1370 nM
same,fold selectivity for CAL PDZ over NHERF1/2 PDZ domains,[7],> 130 fold
